Reference: EP4792830A2
Residue numbers refer to the chain shown, from its start. Like-named read-outs stand apart in the source and are kept apart here. Each block holds one binder with its values, some of them ahead of it.

Tests used:
[1] = target: endogenous TFPI in human plasma (human), P10646; test: cell-based or functional assay
[2] = target: endogenous TFPI in human plasma (human), P10646; test: cell-based or functional assay; remark: listed apart in the source

B1: TFPI-24 (antibody, human IgG1, lambda)
heavy: EVQLVESGGGSVQPGRSLRLSCAVSGLTIDNYAMQWVRQRPGKGLEWVSGISGNSRSIGYADSVKGRLTISRDNAKNSLYLQIDSLRADDTALYYCAIFLHESDYWGQGTLVTVSSASTKGPSVFPLAPSSKSTSGGTAALGCLVKDYFPEPVTVSWNSGALTSGVHTFPAVLQSSGLYSLSSVVTVPSSSLGTQTYICNVNHKPSNTKVDKKVEPKSCDKTHTCPPCPAPEAAGAPSVFLFPPKPKDTLMISRTPEVTCVVVDVSHEDPEVKFNWYVDGVEVHNAKTKPREEQYNSTYRVVSVLTVLHQDWLNGKEYKCKVSNKALPAPIEKTISKAKGQPREPQVYTLPPSREEMTKNQVSLTCLVKGFYPSDIAVEWESNGQPENNYKTTPPVLDSDGSFFLYSKLTVDKSRWQQGNVFSCSVMHEALHNHYTQKSLSLSPG
light: not shown
EC50 (dilute prothrombin time, clotting time) [1]: 0.57 nM
TGA Velocity Index at 20 nM [1]: 23.2

B3: 2A8-200 (antibody, human IgG1, lambda)
heavy: QVQLVESGGGLVQPGGSLRLSCAASGFTFRSYGMDWVRQAPGKGLEWVSSIRGSRSSTYYADSVKGRFTISRDNSKNTLYLQMNSLRAEDTAVYYCARLYRYWFDYWGQGTLVTVSSASTKGPSVFPLAPSSKSTSGGTAALGCLVKDYFPEPVTVSWNSGALTSGVHTFPAVLQSSGLYSLSSVVTVPSSSLGTQTYICNVNHKPSNTKVDKKVEPKSCDKTHTCPPCPAPEAAGAPSVFLFPPKPKDTLMISRTPEVTCVVVDVSHEDPEVKFNWYVDGVEVHNAKTKPREEQYNSTYRVVSVLTVLHQDWLNGKEYKCKVSNKALPAPIEKTISKAKGQPREPQVYTLPPSREEMTKNQVSLTCLVKGFYPSDIAVEWESNGQPENNYKTTPPVLDSDGSFFLYSKLTVDKSRWQQGNVFSCSVMHEALHNHYTQKSLSLSPG
light: DIELTQPPSVSVAPGQTARISCSGDNLRNYYAHWYQQKPGQAPVVVIFYDVNRPSGIPERFSGSNSGNTATLTISGTQAEDEADYYCQSWWDGVPVFGGGTKLTVLGQPKAAPSVTLFPPSSEELQANKATLVCLISDFYPGAVTVAWKADSSPVKAGVETTTPSKQSNNKYAASSYLSLTPEQWKSHRSYSCQVTHEGSTVEKTVAPTECS
Dilute PT EC50 [1]: 1 nM

B5: 4D8.b1 (antibody, mouse IgG1, kappa)
heavy: EVLLQQSGPELVKPGASVKIPCKASGYTFTDYNLDWVKQSHGKSLEWIGDINPINGATLYNQKFKGKATLTVDQSSSTAYMELRSLTSEDTAVYYCSIYYGDYDAMDYWGQGASVTVSSAKTTPPSVYPLAPGSAAQTNSMVTLGCLVKGYFPEPVTVTWNSGSLSSGVHTFPAVLQSDLYTLSSSVTVPSSTWPSETVTCNVAHPASSTKVDKKIVPRDCGCKPCICTVPEVSSVFIFPPKPKDVLTITLTPKVTCVVVDISKDDPEVQFSWFVDDVEVHTAQTQPREEQFNSTFRSVSELPIMHQDWLNGKEFKCRVNSAAFPAPIEKTISKTKGRPKAPQVYTIPPPKEQMAKDKVSLTCMITDFFPEDITVEWQWNGQPAENYKNTQPIMDTDGSYFVYSKLNVQKSNWEAGNTFTCSVLHEGLHNHHTEKSLSHSPGK
light: DIVMTQSHKFMSTSVGDRVSITCKASQDVHTAVAWYQQKPGQSPRLLIYWASTRHTGVPDRFTGCGSGTDYTLTISSVQAEDLALYYCQQHYTTPYTFGGGTKLEMKADAAPTVSIFPPSSEQLTSGGASVVCFLNNFYPKDINVKWKIDGSERQNGVLNSWTDQDSKDSTYSMSSTLTLTKDEYERHNSYTCEATHKTSTSPIVKSFNRNEC
TGA Velocity Index at 20 nM [2]: 26.3
TGA Velocity Index at 20 nM [1]: 13.5

Now from value to binder:

Dilute PT EC50 [1]: 1.16 nM
EC50 (dilute prothrombin time, clotting time) [1]: 1.16 nM
TGA Velocity EC50 [1]: 7.72 nM
B2: TFPI-118 (antibody, human IgG1, lambda)
heavy: B1 heavy with S11L, R40A, L68F, I83M, D84N, D89E
light: not shown

Dilute PT EC50 [1]: 0.47 nM
EC50 (dilute prothrombin time, clotting time) [1]: 0.47 nM
TGA Velocity EC50 [1]: 3.9 nM
TGA Velocity Index at 20 nM [1]: 15.7
B4: hz4D8 (antibody, human IgG1, kappa)
heavy: EVQLVESGGGLVQPGGSLRLSCAASGYTFTDYNLDWVRQAPGKGLEWVADINPINGATLYNQKFKGRFTISRDQAKNSLYLQMNSLRAEDTAVYYCARYYGDYDAMDYWGQGTLVTVSSASTKGPSVFPLAPSSKSTSGGTAALGCLVKDYFPEPVTVSWNSGALTSGVHTFPAVLQSSGLYSLSSVVTVPSSSLGTQTYICNVNHKPSNTKVDKKVEPKSCDKTHTCPPCPAPEAAGAPSVFLFPPKPKDTLMISRTPEVTCVVVDVSHEDPEVKFNWYVDGVEVHNAKTKPREEQYNSTYRVVSVLTVLHQDWLNGKEYKCKVSNKALPAPIEKTISKAKGQPREPQVYTLPPSREEMTKNQVSLTCLVKGFYPSDIAVEWESNGQPENNYKTTPPVLDSDGSFFLYSKLTVDKSRWQQGNVFSCSVMHEALHNHYTQKSLSLSPG
light: DIQMTQSPSSLSASVGDRVTITCKASQDVHTAVAWYQQKPGKAPKLLIYWASTRHTGVPSRFSGSGSGTDYTLTISSLQPEDFATYYCQQHYTTPYTFGQGTKLEIKRTVAAPSVFIFPPSDEQLKSGTASVVCLLNNFYPREAKVQWKVDNALQSGNSQESVTEQDSKDSTYSLSSTLTLSKADYEKHKVYACEVTHQGLSSPVTKSFNRGEC
